Assay [1] concerns the target T1, recombinant memapsin 2 (human, UniProt P56817 14-454, limits assumed).
T1 construct: also called M2; beta-secretase
The assay can be described thus: comparison of inhibition constants with and without P4 Glu.

The target of assay [2] is T1, recombinant memapsin 2. Kind of assay: enzyme inhibition with a synthetic fluorogenic peptide substrate.
For assay [3], the target named is T1, recombinant memapsin 2. The assay can be described thus: inhibition constant quoted in the crystallisation example.

No end group written: not given here.

T1 sequence (P56817 14-454 limits assumed): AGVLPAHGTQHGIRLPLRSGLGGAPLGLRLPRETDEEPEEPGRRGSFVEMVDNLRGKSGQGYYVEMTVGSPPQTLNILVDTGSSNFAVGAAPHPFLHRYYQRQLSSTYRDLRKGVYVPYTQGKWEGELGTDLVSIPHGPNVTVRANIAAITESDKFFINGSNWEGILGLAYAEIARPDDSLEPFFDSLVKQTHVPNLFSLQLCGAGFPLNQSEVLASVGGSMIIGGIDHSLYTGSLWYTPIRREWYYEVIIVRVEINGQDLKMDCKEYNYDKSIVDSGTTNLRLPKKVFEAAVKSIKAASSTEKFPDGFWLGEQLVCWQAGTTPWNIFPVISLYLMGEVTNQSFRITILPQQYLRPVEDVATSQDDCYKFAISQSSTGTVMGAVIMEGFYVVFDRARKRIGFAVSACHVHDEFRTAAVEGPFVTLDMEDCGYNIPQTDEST

B1: OM99-1 (peptide)
peptide: VNLAAEF
modifications: also: Leu-Ala peptide bond replaced by hydroxyethylene isostere -CH(OH)-CH2-
notes: also called OMR99-1; Val-Asn-Leu*Ala-Ala-Glu-Phe
As to B1, the “fold increase in Ki against OM99-2” value with recombinant memapsin 2 [1] is 10 fold. For the same molecule, in the assay with recombinant memapsin 2 [2], the inhibition constant Ki came to 30 nM.

B2: OM99-2 (peptide)
peptide: EVNLAAEF
modifications: also: Leu-Ala peptide bond replaced by hydroxyethylene isostere -CH(OH)-CH2- (Leu*Ala)
On to B2, for which the Ki with recombinant memapsin 2 [3] stood at 10 nM.

These data come from patent publication US20040220079A1 (OKLAHOMA MEDICAL RESEARCH FOUNDATION, published 2004).
